Patent publication US20250249113A1, “LIGAND-DRUG-CONJUGATES WITH IMPROVED PHARMACOKINETIC AND DRUG RELEASE PROPERTIES” (Debiopharm Research & Manufacturing S.A., priority 2022, published 2025)

What was measured:
Assay in all cases: In vitro cytotoxicity on DLBCL cell lines panel (CellTiter Glo)
Assay type in all cases: cell-based
Toledo cells = conditions: Toledo cell line, 72 hours of incubation, relative IC50
Experimental: (§1) After 72 hours of incubation, plates were inspected under an inverted microscope to ensure growth of the controls and sterile conditions. Then, 50 μL CellTiter Glo (Promega, G7572) were added prior to luminescence reading as per the manufacturer's instructions. Relative IC50 were calculated using GraphPad Prism.

SU-DHL-2 cells = conditions: SU-DHL-2 cell line, 72 hours of incubation, relative IC50
Experimental: as §1

KARPAS-422 cells = conditions: KARPAS-422 cell line, 72 hours of incubation, relative IC50
Experimental: as §1

DOHH-2 cells = conditions: DOHH-2 cell line, 72 hours of incubation, relative IC50
Experimental: as §1

SU-DHL-4 cells = conditions: SU-DHL-4 cell line, 72 hours of incubation, relative IC50
Experimental: as §1

SU-DHL-5 cells = conditions: SU-DHL-5 cell line, 72 hours of incubation, relative IC50
Experimental: as §1

OCI-LY7 cells = conditions: OCI-LY7 cell line, 72 hours of incubation, relative IC50
Experimental: as §1

A3/KAW cells = conditions: A3/KAW cell line, 72 hours of incubation, relative IC50
Experimental: as §1

HBL-1 cells = conditions: HBL-1 cell line, 72 hours of incubation, relative IC50
Experimental: as §1

WSU-DLCL2 cells = conditions: WSU-DLCL2 cell line, 72 hours of incubation, relative IC50
Experimental: as §1

SU-DHL-6 cells = conditions: SU-DHL-6 cell line, 72 hours of incubation, relative IC50
Experimental: as §1

OCI-LY19 cells = conditions: OCI-LY19 cell line, 72 hours of incubation, relative IC50
Experimental: as §1

SU-DHL-8 cells = conditions: SU-DHL-8 cell line, 72 hours of incubation, relative IC50
Experimental: as §1

Pfeiffer cells = conditions: Pfeiffer cell line, 72 hours of incubation, relative IC50
Experimental: as §1

OCI-LY3 cells = conditions: OCI-LY3 cell line, 72 hours of incubation, relative IC50
Experimental: as §1

U-2932 cells = conditions: U-2932 cell line, 72 hours of incubation, relative IC50
Experimental: as §1

WSU-NHL cells = conditions: WSU-NHL cell line, 72 hours of incubation, relative IC50
Experimental: as §1

B1: Debio 1562: Comparative example: naratuximab reacted with crosslinking reagent SMCC and the maytansinoid DM1; DAR 3.5 (conjugate, chains of the INN, looked up)
VH: QVQVQESGPGLVAPSQTLSITCTVSGFSLTTSGVSWVRQPPGKGLEWLGVIWGDGSTNYHPSLKSRLSIKKDHSKSQVFLKLNSLTAADTATYYCAKGGYSLAHWGQGTLVTVSS
VL: DIQMTQSPSSLSVSVGERVTITCRASENIRSNLAWYQQKPGKSPKLLVNVATNLADGVPSRFSGSGSGTDYSLKINSLQPEDFGTYYCQHYWGTTWTFGQGTKLEIK
modifications: SMCC-DM1, DAR 3.5
B1 gave an IC50 (Toledo cells) of 90 nM, an IC50 (SU-DHL-2 cells) of 7.78 nM and an IC50 (KARPAS-422 cells) of 20.5 nM. For the same molecule, the IC50 (DOHH-2 cells) was 0.949 nM, the IC50 (SU-DHL-4 cells) was 0.983 nM and the IC50 (SU-DHL-5 cells) was 0.901 nM. The IC50 (OCI-LY7 cells) was 79.3 nM, the IC50 (A3/KAW cells) was 33 nM and the IC50 (HBL-1 cells) was 0.217 nM. It also gave an IC50 (WSU-DLCL2 cells) of 9.59 nM, an IC50 (SU-DHL-6 cells) of 1.74 nM and an IC50 (OCI-LY19 cells) of 45.5 nM. For the same molecule, the IC50 (SU-DHL-8 cells) was 21.5 nM, the IC50 (Pfeiffer cells) was 73.5 nM and the IC50 (OCI-LY3 cells) was 0.352 nM. The IC50 (U-2932 cells) was 3.57 nM and the IC50 (WSU-NHL cells) was 0.19 nM.
